In one data set the target is T1, mouse GIPR (Mus musculus, UniProt Q0P543).
T1 sequence (Q0P543 19-460): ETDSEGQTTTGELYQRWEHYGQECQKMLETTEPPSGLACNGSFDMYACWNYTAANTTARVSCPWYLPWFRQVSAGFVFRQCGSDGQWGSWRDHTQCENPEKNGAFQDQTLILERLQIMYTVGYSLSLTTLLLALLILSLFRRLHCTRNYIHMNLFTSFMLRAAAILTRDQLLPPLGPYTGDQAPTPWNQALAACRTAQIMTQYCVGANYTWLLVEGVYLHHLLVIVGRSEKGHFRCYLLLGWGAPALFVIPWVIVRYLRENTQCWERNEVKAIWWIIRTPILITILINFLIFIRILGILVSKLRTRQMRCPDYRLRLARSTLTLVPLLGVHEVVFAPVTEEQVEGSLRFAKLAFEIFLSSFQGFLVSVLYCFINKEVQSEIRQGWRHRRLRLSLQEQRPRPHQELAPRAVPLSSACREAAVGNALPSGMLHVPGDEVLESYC
As to the kind of experiment: In vitro potency, mouse GIPR activation (receptor-mediated cAMP synthesis). The format is cell-based. Conditions: Table 12.

A further data set has as its target T2, dog GLP1R (Canis lupus familiaris, UniProt A0A8I3NUR9).
T2 sequence (A0A8I3NUR9 1-464): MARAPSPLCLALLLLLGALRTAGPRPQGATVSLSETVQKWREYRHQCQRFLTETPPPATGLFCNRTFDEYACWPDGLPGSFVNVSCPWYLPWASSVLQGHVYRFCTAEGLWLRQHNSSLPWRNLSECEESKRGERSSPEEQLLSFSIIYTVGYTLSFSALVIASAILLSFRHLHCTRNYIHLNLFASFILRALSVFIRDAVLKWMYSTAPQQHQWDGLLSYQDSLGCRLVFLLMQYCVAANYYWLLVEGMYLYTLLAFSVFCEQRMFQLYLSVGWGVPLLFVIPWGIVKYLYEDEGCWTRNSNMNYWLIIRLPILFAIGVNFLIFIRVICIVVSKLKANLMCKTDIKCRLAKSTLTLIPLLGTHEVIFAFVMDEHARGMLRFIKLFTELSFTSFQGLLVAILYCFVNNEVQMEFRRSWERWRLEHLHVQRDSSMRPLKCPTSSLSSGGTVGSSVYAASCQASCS
As to the kind of experiment: In vitro potency, dog GLP1R activation (receptor-mediated cAMP synthesis). It is filed as cell-based. As to conditions: Table 12. On the procedure:
(§1) GLP-1R-CRE or HEK293-GIPR-CRE cells were seeded in 384-well plates at a density of 5000 cells per well and cultured for 18 h in DMEM with 10% FBS at 37° C. and 5% CO2. Cells were treated with peptides in a dose dependent manner for 24 h, and receptor activation was reported by luminescence intensities, using One-Glo (Promega, WI) luciferase reagent following manufacturer's instruction. The EC50 of each peptide was determined using GraphPad Prism 6 software (GraphPad, San Diego, CA). Results are depicted in FIGS. 6A-6B, FIGS. 7A-7B, FIGS. 8A-8B, FIGS. 9A-9B, and Tables 7-12. Measurements of peptide conjugate potency were expressed as half maximal effective concentration (EC50) values.

The target in the next data set is T3, dog GIPR (Canis lupus familiaris, UniProt A0A8I3MPG1).
T3 sequence (A0A8I3MPG1 24-449): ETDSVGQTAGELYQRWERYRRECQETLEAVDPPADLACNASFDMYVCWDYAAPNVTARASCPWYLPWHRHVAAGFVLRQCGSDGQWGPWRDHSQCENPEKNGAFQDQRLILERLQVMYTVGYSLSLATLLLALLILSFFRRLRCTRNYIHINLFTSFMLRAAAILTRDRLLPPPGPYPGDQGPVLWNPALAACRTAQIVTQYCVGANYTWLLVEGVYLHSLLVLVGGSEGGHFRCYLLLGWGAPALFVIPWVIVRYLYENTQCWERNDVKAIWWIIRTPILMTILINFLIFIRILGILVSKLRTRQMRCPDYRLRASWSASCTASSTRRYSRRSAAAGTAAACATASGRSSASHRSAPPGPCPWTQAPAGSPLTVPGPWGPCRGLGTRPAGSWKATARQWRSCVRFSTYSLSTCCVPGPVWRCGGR
As to the kind of experiment: In vitro potency, dog GIPR activation (receptor-mediated cAMP synthesis). It is filed as cell-based. Conditions: Table 12; read-out: In Vitro Potency GIPR EC50, Dog. As to the method: as §1

A short description of the next data set: in vivo. Conditions: cynomolgus monkey.

As usually defined, the EC50 is the concentration needed to bring the measured effect to its halfway point. For orientation: Vd means the apparent volume that relates the amount in the body to the concentration in plasma or blood. Usually clearance stands for the volume of plasma or blood freed of the substance per unit of time. The half-life is how long it takes for the measured level to halve. As usually defined, the AUC(0-t) is the area under the concentration-time curve up to a stated or last time point. As usually defined, the Cmax is the highest concentration seen after dosing. A word on the Tmax: it is the time at which the peak concentration occurs. The term bioavailability denotes dose-corrected exposure relative to a reference, in per cent. `CC[C@H](C)[C@H](NC(=O)[C@H](CC(C)C)NC(=O)[C@H](Cc1c[nH]c2ccccc12)NC(=O)[C@@H]1CSCC(=O)NCCN(C(=O)CCC(=O)NCCOCCOCCC(=O)NCCOCCOCCC(=O)NCCCC[C@H](NC(=O)CCCCCCCCCCCCCCCCCCC(=O)O)C(=O)O)CCNC(=O)CSC[C@H](NC(=O)[C@H](CCCCN)NC(=O)[C@H](CC(=O)O)NC(=O)[C@H](CC(C)C)NC(=O)[C@H](Cc2ccc(O)cc2)NC(=O)[C@@H](NC(=O)[C@H](CO)NC(=O)[C@H](Cc2ccc(O)cc2)NC(=O)[C@H](CC(=O)O)NC(=O)[C@H](CO)NC(=O)[C@@H](NC(=O)[C@H](Cc2ccccc2)NC(=O)[C@@H](NC(=O)CNC(=O)[C@H](CCC(=O)O)NC(=O)C(C)(C)NC(=O)[C@@H](N)Cc2ccc(O)cc2)[C@@H](C)O)[C@@H](C)O)[C@@H](C)CC)C(=O)N[C@@H](C)C(=O)N[C@@H](C)C(=O)NC(C)(C)C(=O)N[C@@H](CCC(=O)O)C(=O)N[C@@H](Cc2ccccc2)C(=O)N[C@@H](C(C)C)C(=O)N1)C(=O)N[C@@H](C)C(=O)NCC(=O)NCC(=O)N1CCC[C@H]1C(=O)N[C@@H](CO)C(=O)N[C@@H](CO)C(=O)NCC(=O)N[C@@H](C)C(=O)N1CCC[C@H]1C(=O)N1CCC[C@H]1C(=O)N1CCC[C@H]1C(=O)N[C@@H](CO)C(N)=O` [mCMV268] displayed an EC50 on mouse GIPR of 0.26 nM. This compound came in with an EC50 at dog GLP1R of 1.48 nM. The EC50 at dog GIPR is 0.42 nM. Besides, in the data set “in vivo” (iv), the T last stood at 504 h, the volume of distribution (Vd) is 0.0612 L/kg, the clearance was determined as 20.2 mL/day/kg and the half-life was 58.8 h. Further, in “in vivo” (sc), the AUC(0-t) amounted to 438 µg·h/mL, the concentration peaked (Cmax) at 3930 ng/mL, the T last is reported as 504 h and the time to peak (Tmax) came out at 14.7 h. Moreover, in “in vivo” (sc), the bioavailability came out at 73.7% and the half-life is 60.5 h.
`CC[C@H](C)[C@H](NC(=O)[C@H](CC(C)C)NC(=O)[C@H](Cc1c[nH]c2ccccc12)NC(=O)[C@@H]1CSCC(=O)NCCN(C(=O)CCC(=O)NCCOCCOCCC(=O)NCCOCCOCCC(=O)NCCCC[C@H](NC(=O)CCCCCCCCCCCCCCCCC(=O)O)C(=O)O)CCNC(=O)CSC[C@H](NC(=O)[C@H](CCCCN)NC(=O)[C@H](CC(=O)O)NC(=O)[C@H](CC(C)C)NC(=O)[C@H](Cc2ccc(O)cc2)NC(=O)[C@@H](NC(=O)[C@H](CO)NC(=O)[C@H](Cc2ccc(O)cc2)NC(=O)[C@H](CC(=O)O)NC(=O)[C@H](CO)NC(=O)[C@@H](NC(=O)[C@H](Cc2ccccc2)NC(=O)[C@@H](NC(=O)CNC(=O)[C@H](CCC(=O)O)NC(=O)C(C)(C)NC(=O)[C@@H](N)Cc2ccc(O)cc2)[C@@H](C)O)[C@@H](C)O)[C@@H](C)CC)C(=O)N[C@@H](C)C(=O)N[C@@H](C)C(=O)NC(C)(C)C(=O)N[C@@H](CCC(=O)O)C(=O)N[C@@H](Cc2ccccc2)C(=O)N[C@@H](C(C)C)C(=O)N1)C(=O)N[C@@H](C)C(=O)NCC(=O)NCC(=O)N1CCC[C@H]1C(=O)N[C@@H](CO)C(=O)N[C@@H](CO)C(=O)NCC(=O)N[C@@H](C)C(=O)N1CCC[C@H]1C(=O)N1CCC[C@H]1C(=O)N1CCC[C@H]1C(=O)N[C@@H](CO)C(N)=O` [mCMZ371, YAibEGT-FTSDY-SIYLD-KXAAAib-EFVXW-LIAGG-PSSGA-PPPS-NH2 (where each X is C) (SEQ ID NO: 61)] had a 50% effective concentration (EC50) at mouse GIPR of 0.27 nM. Also, the midpoint of the response at dog GLP1R, the EC50, lay at 1.34 nM. For the same compound, the concentration giving a half-maximal response (EC50) at dog GIPR is 0.47 nM. The “t1/2 in cynomolgus monkeys (in words)” value in “in vivo” is “long t1/2”. In addition, in the data set “in vivo” (iv), the exposure AUC(0-t) came to 267 µg·h/mL, the T last was 240 h, the Vd was 0.0538 L/kg and the clearance amounted to 18.1 mL/day/kg. Further, in “in vivo” (iv), the half-life was 60.2 h. For the same compound, in “in vivo” (sc), the AUC(0-t) is 156 µg·h/mL, the Cmax came to 1740 ng/mL, the T last was 240 h and the Tmax came out at 24 h. In “in vivo” (sc), this compound had a bioavailability of 58.5% and a half-life of 49.3 h.

(Values after patent publication US12329823B2 (The Scripps Research Institute, priority 2021, dated 2025).)
